In paper PMC7494283:

Biological target: SARS-CoV-2 prefusion-stabilized S ectodomain trimer (SARS-CoV-2 | not stated) (UniProt P0DTC2)

Substance S2X35 mAb (IgG1) (antibody) has an SARS-CoV-2 pseudovirus neutralization IC50; hinders ACE2 binding of 0.5 µg/mL.
